The results in this text go back to patent US20110311522A1.

Positions count from the first letter of the chain named. Where only a bound is given, the exact number is not on record here.

What all share (assay): cell-based or functional assay
The target of assay [1] is hemagglutinin (HA) of virus strain Ck/HK/Yu22/02 (H5N1) (H5N1 avian influenza virus, strain Ck/HK/Yu22/02).
The target of assay [2] is hemagglutinin (HA) of H5N1 virus strain VTM1.1 (H5N1 avian influenza virus, strain VTM1.1).
The target of assay [3] is 14 strains of non-H5 viruses (H1~H13, Chicken NDV).
In assay [4] the target is hemagglutinin (HA) of H5N1 virus strain GD3.1 (H5N1 avian influenza virus, strain GD3.1).
Assay [5] concerns the target hemagglutinin (HA) of H5N1 virus strain Mixed1.1 (H5N1 avian influenza virus, strain Mixed1.1).
Assay [6] addresses hemagglutinin (HA) of H5N1 virus strain GD4.1 (H5N1 avian influenza virus, strain GD4.1).
In assay [7] the target is hemagglutinin (HA) of H5N1 virus strain FJ1.5 (H5N1 avian influenza virus, strain FJ1.5).
The target in assay [8] is hemagglutinin (HA) of H5N1 virus strain QH1.1 (H5N1 avian influenza virus, strain QH1.1).
The target in assay [9] is hemagglutinin (HA) of H5N1 virus strain HN3.1 (H5N1 avian influenza virus, strain HN3.1).
Assay [10] has as its target hemagglutinin (HA) of H5N1 virus strain IDN1.1 (H5N1 avian influenza virus, strain IDN1.1).
Assay [11] has as its target hemagglutinin (HA) of H5N1 virus strain GD1.1 (H5N1 avian influenza virus, strain GD1.1).
Assay [12] concerns the target hemagglutinin (HA) of H5N1 virus strain IDN6.1 (H5N1 avian influenza virus, strain IDN6.1).
For assay [13], the target named is hemagglutinin (HA) of H5N1 virus strain VTM4.1 (H5N1 avian influenza virus, strain VTM4.1).
For assay [14], the target named is hemagglutinin (HA) of H5N1 virus strain VNM2-2.1 (H5N1 avian influenza virus, strain VNM2-2.1).
The target of assay [15] is H5 virus strain (fifteen strains of H5N1 viruses).
The target in assay [16] is hemagglutinin (HA) of H5N1 virus strain YN2.1 (H5N1 avian influenza virus, strain YN2.1).
In assay [17] the target is hemagglutinin (HA) of H5N1 virus strain IDN3.1 (H5N1 avian influenza virus, strain IDN3.1).
In assay [18] the target is hemagglutinin (HA) of H5N1 virus strain IDN8.1 (H5N1 avian influenza virus, strain IDN8.1).
Assay [19] concerns the target hemagglutinin (HA) of H5N1 virus strain B8 (H5N1 avian influenza virus, strain B8).
Assay [20] deals with hemagglutinin (HA) of H5N1 virus strain A3 (H5N1 avian influenza virus, strain A3).
Assay [21] deals with hemagglutinin (HA) of H5N1 virus strain B1 (H5N1 avian influenza virus, strain B1).
In assay [22] the target is hemagglutinin (HA) of H5N1 virus strain B6 (H5N1 avian influenza virus, strain B6).
Assay [23] concerns the target hemagglutinin (HA) of H5N1 virus strain B3 (H5N1 avian influenza virus, strain B3).
Assay [24] has as its target hemagglutinin (HA) of H5N1 virus strain D2 (H5N1 avian influenza virus, strain D2).
Assay [25] deals with hemagglutinin (HA) of H5N1 virus strain F3 (H5N1 avian influenza virus, strain F3).
Assay [26] concerns the target hemagglutinin (HA) of H5N1 virus strain B4 (H5N1 avian influenza virus, strain B4).
For assay [27], the target named is hemagglutinin (HA) of H5N1 virus strain D1 (H5N1 avian influenza virus, strain D1).
In assay [28] the target is hemagglutinin (HA) of H5N1 virus strain D3 (H5N1 avian influenza virus, strain D3).
The target of assay [29] is hemagglutinin (HA) of H5N1 virus strain A6 (H5N1 avian influenza virus, strain A6).
Assay [30] has as its target hemagglutinin (HA) of H5N1 virus strain H2 (H5N1 avian influenza virus, strain H2).
Assay [31] concerns the target hemagglutinin (HA) of H5N1 virus strain C3 (H5N1 avian influenza virus, strain C3).
For assay [32], the target named is hemagglutinin (HA) of H5N1 virus strain A1 (H5N1 avian influenza virus, strain A1).
For assay [33], the target named is hemagglutinin (HA) of H5N1 virus strain B7 (H5N1 avian influenza virus, strain B7).
In assay [34] the target is hemagglutinin (HA) of H5N1 virus strain E1 (H5N1 avian influenza virus, strain E1).
Assay [35] has as its target hemagglutinin (HA) of H5N1 virus strain G1 (H5N1 avian influenza virus, strain G1).
Assay [36] has as its target hemagglutinin (HA) of H5N1 virus strain C2 (H5N1 avian influenza virus, strain C2).
For assay [37], the target named is hemagglutinin (HA) of H5N1 virus strain E2 (H5N1 avian influenza virus, strain E2).
For assay [38], the target named is hemagglutinin (HA) of H5N1 virus strain F2 (H5N1 avian influenza virus, strain F2).
The target in assay [39] is hemagglutinin (HA) of H5N1 virus strain A2 (H5N1 avian influenza virus, strain A2).
The target in assay [40] is hemagglutinin (HA) of H5N1 virus strain A7 (H5N1 avian influenza virus, strain A7).
Assay [41] deals with hemagglutinin (HA) of H5N1 virus strain A8 (H5N1 avian influenza virus, strain A8).
For assay [42], the target named is hemagglutinin (HA) of H5N1 virus strain F4 (H5N1 avian influenza virus, strain F4).

B1: 13D4 single chain antibody (scFv)
scFv: QVQLQQSGAELMKPGASVKISCKATGYTFSGHWIEWVKQRPGHGLEWIGEILPGSGNIHYNEKFKGKATFAADTSSNTAYMQLSSLTSEDSAVYYCARLGTTAVERDWYFDVWGQGTTVTESLEDPRVPSSNSGGGGSGGGGSGGGGSDIVMTQSQKFMSASVGDRVSVTCKASQNVGTHLAWYQQKPGQSPKALIYSASYRYSGVPDRFTGSGSGTDFTLTISNVQSGDLADYFCQQYNNFPLTFGAGTKLEIKR
In the case of B1, the hemagglutination inhibition (HI) activity (fold dilution (from 0.18 mg/ml)) in [1] is 8.

B2: 8G9 chimeric antibody (antibody, V domains shown)
VH: QVQLQQPGVELVRPGASVKLSCKASGYTFTSFWMNWVKQRPDQGLEWIGRIDPYDSETHYNQKFKDKAILTVDKSSSTAYMQLSSLTSEDSAVYYCGRGIATLMVLPDYWGQGTSVTVSS
VL: DILMTQSPSSMSVSLGDTVSITCHASQDISSNMGWLQQKPGKSLKGLIYHGTNLEDGVPSRFSGSGSGPDYSLTISSLESEDFADYYCVQYIQFPWTFGGGTKLEIKR
As for B2, in assay [1], the hemagglutination inhibition (HI) activity (fold dilution) is 16.

B3: monoclonal antibody 20A11 (antibody, V domains shown)
VH: QVQLQQSGAELMKPGASVKISCKATGYTFSGHWIEWVKQRPGHGLEWIGEILPGSGNIHYNEKFKGKATFAADTSSNTAYMQLSSLTSEDSAVYYCARLGTTAVERDWYFDVWGQGTSVTVSS
VL: DIVMTQSQKFMSASVGDRVSVTCKASQNVGTHLAWYQQKPGQSPKALIYSASYRYSGVPDRFTGSGSGTDFTLTISNVQSGDLADYFCQQYNNFPLTFGAGTKLEIKR
Consider B3, for which the Hamaglutinin inhibition titer in assay [2], in assay [4], in [5], in [6], in [7] and in assay [8] was 12800 titer each time. Besides, the Hamaglutinin inhibition titer in [9], in [10], in assay [11], in [12], in [13] and in assay [14] was 12800 titer in each case. In addition, the Hamaglutinin inhibition titer in [16], in assay [17] and in assay [18] was 12800 titer each time. The Neutralization titer in assay [2], in [4], in assay [5], in [6], in [7] and in assay [8] was 12800 titer each time. The Neutralization titer was determined as 6400 titer in assay [9]; 12800 titer in assay [10]; 12800 titer in assay [11]; 12800 titer in assay [12]; 12800 titer in [13]; 12800 titer in assay [14]. The Neutralization titer in [16], in assay [17] and in [18] was 12800 titer throughout. In assay [3], this molecule had a Positive number/total virus number, hemagglutination inhibition assay (of 14 virus strains positive) of 0. Besides, in assay [15], the Positive number/total virus number, hemagglutination inhibition assay (of 15 virus strains positive) is 15.

B4: 13D4 chimeric antibody LV (antibody, V domains shown)
VH: B3 VH with S118L
VL: B3 VL
As to B4, the HI titer (hemagglutinin inhibition assay) (n (HI titer = 2^n)) is 4 in assay [19]; 6 in assay [20]; greater than 8 in assay [21]; greater than 8 in [22]; 2 in assay [23]; 4 in [24]. Besides, the HI titer (hemagglutinin inhibition assay) (n (HI titer = 2^n)) in assay [25] was determined as 6; in [26], 4; in assay [27], 4; in assay [28], 4; in [29], 6.5; in [30], 3. Besides, the HI titer (hemagglutinin inhibition assay) (n (HI titer = 2^n)) was 4 in assay [31]; greater than 8 in [32]; 6 in assay [33]; 5.5 in assay [34]; 2 in assay [35]; 3 in assay [36]. Also, the HI titer (hemagglutinin inhibition assay) (n (HI titer = 2^n)) in assay [37] came out at 3; in assay [38], 5.5; in [39] it was 7; in assay [40] it was 4; in [41], 7.

B5: 13D4 chimeric antibody SV (antibody, V domains shown)
VH: B3 VH
VL: B3 VL
For the molecule B5, the HI titer (hemagglutinin inhibition assay) (n (HI titer = 2^n)) in assay [19] is 6; in assay [20], 5; in [21], greater than 8; in [22] it was less than 8; in [23], 2; in assay [24], 5. In addition, the HI titer (hemagglutinin inhibition assay) (n (HI titer = 2^n)) was determined as 6.5 in assay [25]; 4 in assay [26]; 5 in assay [27]; 5.5 in [28]; 1 in [42]; 5.5 in assay [29]. In addition, the HI titer (hemagglutinin inhibition assay) (n (HI titer = 2^n)) in [30] is 4; in assay [31], 4; in [32] it was greater than 8; in assay [33] it was 6.5; in [34], 6; in assay [35], 3. Moreover, the HI titer (hemagglutinin inhibition assay) (n (HI titer = 2^n)) amounted to 4 in [36]; 3 in assay [37]; 5 in assay [38]; 7 in [39]; 3.5 in assay [40]; 6 in assay [41].
